Measured values as given in patent EP1272205B1 (The Johns Hopkins University, dated 2013).

Key:
[1] = biological target: SAF-2 on cells (human eosinophils, basophils, cord blood-derived mast cells; HEK293 cells transfected with full length SAF-2) (human) (UniProt Q9NYZ4); experiment: indirect immunofluorescence flow cytometry on human basophils
[2] = biological target: T1, SAF-2 polypeptide (extracellular domain of sialoadhesin factor-2, released from SAF-2/Fc with Factor Xa) (human, UniProt Q9NYZ4 17-363); experiment: BIAcore SPR; mAb captured on rabbit anti-mouse IgG Fc surface, SAF-2 injected
T1 construct: extracellular domain; The BIAcore paragraph says only 'SAF-2 (diluted in HBS buffer)'; also called Siglec-8

[3] = biological target: T1, SAF-2 polypeptide (extracellular domain …); experiment: BIAcore SPR; mAb captured on rabbit anti-mouse IgG Fc surface, SAF-2 injected; calculated from rates

T1 sequence (Q9NYZ4 17-363): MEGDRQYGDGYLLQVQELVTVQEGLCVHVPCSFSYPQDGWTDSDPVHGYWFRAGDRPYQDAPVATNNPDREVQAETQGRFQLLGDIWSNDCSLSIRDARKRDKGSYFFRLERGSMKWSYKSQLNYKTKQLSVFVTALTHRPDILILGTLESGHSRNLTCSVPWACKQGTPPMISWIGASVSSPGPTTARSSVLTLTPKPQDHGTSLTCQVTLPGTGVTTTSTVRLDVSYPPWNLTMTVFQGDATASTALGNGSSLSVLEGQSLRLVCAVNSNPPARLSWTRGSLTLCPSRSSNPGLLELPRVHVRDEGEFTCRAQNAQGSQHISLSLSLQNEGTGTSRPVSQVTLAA
SAF-2 on cells (human eosinophils, basophils, cord blood-derived mast cells; HEK293 cells transfected with full length SAF-2) (human), sequence (Q9NYZ4 17-499): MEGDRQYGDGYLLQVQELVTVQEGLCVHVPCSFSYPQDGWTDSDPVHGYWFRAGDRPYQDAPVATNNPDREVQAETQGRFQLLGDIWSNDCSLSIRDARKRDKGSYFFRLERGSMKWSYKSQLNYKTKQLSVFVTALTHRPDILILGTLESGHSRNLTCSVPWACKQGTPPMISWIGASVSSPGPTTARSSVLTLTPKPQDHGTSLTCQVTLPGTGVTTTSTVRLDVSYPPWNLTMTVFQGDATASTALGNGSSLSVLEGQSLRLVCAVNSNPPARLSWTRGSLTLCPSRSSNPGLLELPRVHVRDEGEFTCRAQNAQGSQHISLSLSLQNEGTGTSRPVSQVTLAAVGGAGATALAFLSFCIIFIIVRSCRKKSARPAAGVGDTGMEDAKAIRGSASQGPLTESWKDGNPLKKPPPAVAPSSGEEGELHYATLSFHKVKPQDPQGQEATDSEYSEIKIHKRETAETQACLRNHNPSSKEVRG

B1: monoclonal antibody 2C4 (antibody, V domains shown)
VH: QVQLKESGPGLVAPSQSLSITCTVSGFSLIYGAHWVRQPPGKGLEWLGVIWAGGSTNYNSALMSRLSISKDNSKSQVFLKINSLQTDDTALYYCARDGSSPYYYSMEYWGQGTSVTVSS
VL: EIILTQSPAIMSASPGEKVSITCSATSSVSYMHWFQQKPGTSPKLWIYSTSNLASGVPVRFSGSGSGTSYSLTISRMEAEDAATYYCQQRSSYPFTFGSGTKLEIKR
notes: also called mAb 2C4
percent positive (percent positive) [1]: 21.1 | koff [2]: 4.3e-05 s⁻¹ | kon [2]: 220000 M⁻¹ s⁻¹ | Kd [3]: 0.2 nM
